The results in this text go back to publication PMC11096365, “Cryo-EM structures of the human Elongator complex at work” (Nature Communications, 2024).

The target in one series is H3. Put plainly: MST. As to conditions: complex; chains chain;chain;chain.
The target in another series is TK40. Put plainly: MST. As to conditions: complex; chains chain;chain;chain.
For a further series, the target named is ELP1;ELP2;ELP3 wild type (Homo sapiens;Homo sapiens;Homo sapiens, UniProt O95163;Q6IA86;Q9H9T3 1-1332;1-826;1-547, ||). Nature of the series: MST; MST: 20 mM HEPES pH 7.5, 100 mM NaCl, 5 mM DTT, 0.05% Tween 20; incubated at 4 C 30 min, measured at 25 C; Cy5-tRNA 14 or 30 nM. Cryo-EM: 20 mM HEPES pH 7.5, 100 mM NaCl, 2 mM MgCl2, 2 mM DTT. As to conditions: protein: recombinant;recombinant;recombinant, tags: ;;C-terminal Twin-Strep-Tag, chain copies: 2;2;2, label: internal Cy5 (5% Cy5-CTP), tRNA fold.
Chain of ELP1;ELP2;ELP3 wild type (O95163 whole entry, chain 1 of 3, one chain of several): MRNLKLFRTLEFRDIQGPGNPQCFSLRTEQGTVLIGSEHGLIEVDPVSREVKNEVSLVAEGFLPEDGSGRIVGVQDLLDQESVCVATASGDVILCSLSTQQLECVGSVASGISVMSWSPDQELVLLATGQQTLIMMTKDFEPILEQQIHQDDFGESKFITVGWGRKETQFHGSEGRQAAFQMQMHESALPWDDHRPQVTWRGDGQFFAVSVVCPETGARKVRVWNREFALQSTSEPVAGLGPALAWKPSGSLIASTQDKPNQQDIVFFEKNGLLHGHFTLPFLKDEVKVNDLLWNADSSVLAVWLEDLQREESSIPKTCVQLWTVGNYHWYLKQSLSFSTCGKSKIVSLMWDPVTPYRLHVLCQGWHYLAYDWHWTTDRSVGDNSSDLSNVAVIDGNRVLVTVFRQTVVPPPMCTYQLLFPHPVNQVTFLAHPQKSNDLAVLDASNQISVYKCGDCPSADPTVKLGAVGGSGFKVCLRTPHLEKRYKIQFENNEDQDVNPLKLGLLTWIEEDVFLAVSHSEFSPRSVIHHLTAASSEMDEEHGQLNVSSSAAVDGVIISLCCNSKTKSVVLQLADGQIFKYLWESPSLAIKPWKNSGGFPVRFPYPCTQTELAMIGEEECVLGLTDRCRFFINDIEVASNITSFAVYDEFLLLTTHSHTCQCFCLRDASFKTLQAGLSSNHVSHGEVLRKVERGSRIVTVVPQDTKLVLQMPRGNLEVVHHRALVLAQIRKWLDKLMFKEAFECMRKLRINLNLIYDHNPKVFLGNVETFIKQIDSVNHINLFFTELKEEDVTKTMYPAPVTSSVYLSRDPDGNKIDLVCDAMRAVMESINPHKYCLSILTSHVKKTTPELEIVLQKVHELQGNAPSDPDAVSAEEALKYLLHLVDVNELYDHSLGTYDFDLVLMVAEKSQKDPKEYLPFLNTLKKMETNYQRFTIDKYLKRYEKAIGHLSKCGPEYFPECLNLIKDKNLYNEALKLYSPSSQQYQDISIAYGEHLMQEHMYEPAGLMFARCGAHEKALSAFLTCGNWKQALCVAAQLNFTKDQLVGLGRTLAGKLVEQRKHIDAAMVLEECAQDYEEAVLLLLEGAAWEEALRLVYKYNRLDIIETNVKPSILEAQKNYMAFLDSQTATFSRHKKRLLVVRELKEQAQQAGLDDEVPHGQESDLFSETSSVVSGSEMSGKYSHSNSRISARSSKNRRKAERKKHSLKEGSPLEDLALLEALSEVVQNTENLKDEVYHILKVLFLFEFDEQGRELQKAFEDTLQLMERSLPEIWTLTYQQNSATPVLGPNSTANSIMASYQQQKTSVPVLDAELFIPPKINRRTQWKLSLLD

The target in series [1] is T1, human ELP3 with C-terminal Twin-Strep-Tag (human, UniProt Q9H9T3 1-547).
T1 construct: ELP3, human, codon-optimized open reading frame, UniProt Q9H9T3; with the tag 65 kDa as printed; Same material as the ELP3 chain of m4; carries an iron-sulfur cluster in all structures; also called ELP3 with Twin-Strep-Tag (TST); source: SuperSf9-3 insect cells, co-expressed with ELP1 and ELP2 (pBig1a), purified as ELP123 (StrepTrap, heparin, Superose 6); not shown: Twin-Strep-Tag, C-terminal, …
T1 sequence (looked up): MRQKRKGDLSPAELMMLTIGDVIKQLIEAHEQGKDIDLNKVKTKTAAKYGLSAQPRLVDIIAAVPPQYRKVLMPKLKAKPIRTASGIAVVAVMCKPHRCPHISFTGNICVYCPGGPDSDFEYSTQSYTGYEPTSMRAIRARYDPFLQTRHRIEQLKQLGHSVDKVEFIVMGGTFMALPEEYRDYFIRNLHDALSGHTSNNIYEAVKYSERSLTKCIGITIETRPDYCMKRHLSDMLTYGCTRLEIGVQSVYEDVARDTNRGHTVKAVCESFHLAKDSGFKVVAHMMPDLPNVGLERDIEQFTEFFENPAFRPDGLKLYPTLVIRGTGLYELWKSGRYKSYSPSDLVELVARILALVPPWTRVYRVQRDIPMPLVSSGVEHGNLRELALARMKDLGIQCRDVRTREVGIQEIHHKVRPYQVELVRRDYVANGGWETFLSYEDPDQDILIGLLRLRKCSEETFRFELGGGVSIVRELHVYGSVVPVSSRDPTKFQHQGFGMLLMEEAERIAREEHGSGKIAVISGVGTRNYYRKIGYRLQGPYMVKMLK
Nature of the series: co-purification with SDS-PAGE; ELP1, ELP2 and ELP3-Twin-Strep co-expressed in insect cells; StrepTrap, heparin and Superose 6 columns; SDS-PAGE of the purified subcomplex. As to conditions: partners not purified.

Numbering of substitutions follows the chain as printed.

Take “human ELP123 subcomplex (ELP1, ELP2, ELP3), O95163 1-1332; Q6IA86 1-826; Q9H9T3 1-547”: the Kd with H3 and with TK40 was > 10000 nM throughout.

B1: tRNAGln U33C34UG (structured_RNA)
RNA: GGCCCCAUGGUGUAAUGGUUAGCACUCUGGACUCUGAAUCCAGCGAUCCGAGUUCAAAUCUCGGUGGGACCUCCA
In the case of B1, in the series with ELP1;ELP2;ELP3 wild type, the binding result is recorded as “binds”.

B2: tRNAGln C33C34UG (structured_RNA)
RNA: B1 RNA with U33C
Turning to B2, in the series with ELP1;ELP2;ELP3 wild type, the binding result was “binds”.

B3: tRNAGlnCUG (structured_RNA)
RNA: B1 RNA with C3U, C4U, G68A
In the case of B3, the dissociation constant Kd (usually a measure of binding affinity in units of concentration) with ELP1;ELP2;ELP3 wild type is 118 ± 13.8 nM.

B4: tRNAGln C33U34UG (structured_RNA)
RNA: B1 RNA with U33C, C34U
On to B4, for which the binding result with ELP1;ELP2;ELP3 wild type is reported as “binds”.

B5: human ELP2 (natural protein, UniProt Q6IA86 1-826, looked up)
chain: MVAPVLETSHVFCCPNRVRGVLNWSSGPRGLLAFGTSCSVVLYDPLKRVVVTNLNGHTARVNCIQWICKQDGSPSTELVSGGSDNQVIHWEIEDNQLLKAVHLQGHEGPVYAVHAVYQRRTSDPALCTLIVSAAADSAVRLWSKKGPEVMCLQTLNFGNGFALALCLSFLPNTDVPILACGNDDCRIHIFAQQNDQFQKVLSLCGHEDWIRGVEWAAFGRDLFLASCSQDCLIRIWKLYIKSTSLETQDDDNIRLKENTFTIENESVKIAFAVTLETVLAGHENWVNAVHWQPVFYKDGVLQQPVRLLSASMDKTMILWAPDEESGVWLEQVRVGEVGGNTLGFYDCQFNEDGSMIIAHAFHGALHLWKQNTVNPREWTPEIVISGHFDGVQDLVWDPEGEFIITVGTDQTTRLFAPWKRKDQSQVTWHEIARPQIHGYDLKCLAMINRFQFVSGADEKVLRVFSAPRNFVENFCAITGQSLNHVLCNQDSDLPEGATVPALGLSNKAVFQGDIASQPSDEEELLTSTGFEYQQVAFQPSILTEPPTEDHLLQNTLWPEVQKLYGHGYEIFCVTCNSSKTLLASACKAAKKEHAAIILWNTTSWKQVQNLVFHSLTVTQMAFSPNEKFLLAVSRDRTWSLWKKQDTISPEFEPVFSLFAFTNKITSVHSRIIWSCDWSPDSKYFFTGSRDKKVVVWGECDSTDDCIEHNIGPCSSVLDVGGAVTAVSVCPVLHPSQRYVVAVGLECGKICLYTWKKTDQVPEINDWTHCVETSQSQSHTLAIRKLCWKNCSGKTEQKEAEGAEWLHFASCGEDHTVKIHRVNKCAL
notes: ELP2, human, codon-optimized open reading frame; predicted MW printed as 93 kDa; Same material as the ELP2 chain of m4; The ORF was first cloned into pFastBac1 HT A; source: SuperSf9-3 insect cells, co-expressed with ELP1 and ELP3 (pBig1a), purified as ELP123 (StrepTrap, heparin, Superose 6)
Regarding B5, in series [1], the stoichiometry N (commonly a count of units in the complex or per binding partner) amounted to 1.

B6: tRNASerUGA (structured_RNA)
RNA: GCAGCGAUGGCCGAGUGGUUAAGGCGUUGGACUUGAAAUCCAAUGGGGUCUCCCCGCGCAGGUUCGAACCCUGCUCGCUGCGCCA
For B6, the Kd with ELP1;ELP2;ELP3 wild type (long variable loop) came out at 138 ± 10.5 nM.
